Laboratory results taken from US20260193376A1 (Novo Nordisk, published 2026).
Numbering of substitutions follows the chain as printed.

B1: one-armed (OA) mAb11-0962 (antibody, V domains shown)
VH: EVQLVESGGGLVQPGRSLRLSCAASKFTFHDYAMHWVRQAPGKGLEWVSGISWKGDIGGYADSVKGRFTISRDNAKNSLYLQMNSLRAEDTALYYCAKSYGSGSFYNAFDSWGQGTLVTVSS
VL: DIQMTQSPSTLSASVGDRVTITCRASQSISSWLAWYQQKPGKAPKFLIYKASKLDRGTPSRFSGSGSGTEFTLTISSLQPDDFATYYCLEYSSYIRTFGQGTKVEIK
B2: one-armed (OA) mAb01-9978 (antibody, V domains shown)
VH: B1 VH with K26G, A40V, A61V, A75E, A97V
VL: B1 VL with F46L, K53R, D55E, T72S
B3: one-armed (OA) mAb11-1288 (antibody, V domains shown)
VH: B1 VH with K26G, A40V, A61V, A75E, A97V
VL: B1 VL with K53R, S60Q, T72S, S76Y, S92N
B4: one-armed (OA) mAb11-1266 (antibody, V domains shown)
VH: B1 VH with K26G, A40V, A61V, A75E, A97V
VL: B1 VL with K53R, R56K, T72S
B5: one-armed (OA) mAb11-1091 (antibody, V domains shown)
VH: B1 VH with R19K, K26G, A40V, A61V
VL: B1 VL
B6: one-armed (OA) mAb11-1276 (antibody, V domains shown)
VH: B1 VH with K26G, A40V, A61V, A75E, A97V
VL: B1 VL with K53R, T72S, Q79S
B7: one-armed (OA) mAb11-1360 (antibody, V domains shown)
VH: B1 VH with R19K, K26G, H30D, A40V, K54R, A61V, M83L, A97V
VL: B1 VL with F46L, K53R, D55E, T72S
B8: one-armed (OA) mAb11-1495 (antibody, V domains shown)
VH: B1 VH with K26G, A40V, K54R, D62K, A97V
VL: B1 VL
B9: one-armed (OA) mAb11-1024 (antibody, V domains shown)
VH: B1 VH with A61V
VL: B1 VL with D55E
B10: one-armed (OA) mAb01-9696 (antibody, V domains shown)
VH: B1 VH with R19K, K26G, H30D, A40V, K54R, A61V, M83L, A97V
VL: B1 VL with V15A, K53R, T72S
B11: one-armed (OA) mAb11-1094 (antibody, V domains shown)
VH: B1 VH with R19K, K26G, A40V, A61V
VL: B1 VL with D55E
B12: one-armed (OA) mAb01-9933 (antibody, V domains shown)
VH: B1 VH with R19K, K26G, H30D, A40V, A61V, M83L
VL: B1 VL with V15A, R18E, F46L, T58V, T72S, S77D
B13: one-armed (OA) mAb11-1039 (antibody, V domains shown)
VH: B1 VH with R19K, A61V
VL: B1 VL
B14: one-armed (OA) mAb11-1021 (antibody, V domains shown)
VH: B1 VH with A61V
VL: B1 VL
B15: one-armed (OA) mAb11-1254 (antibody, V domains shown)
VH: B1 VH with K26G, A40V, A61V, A75D, A97V
VL: B1 VL with K53R, T72S
B16: one-armed (OA) mAb11-1033 (antibody, V domains shown)
VH: B1 VH with A40V, A61V
VL: B1 VL with D55E
B17: one-armed (OA) mAb11-1286 (antibody, V domains shown)
VH: B1 VH with K26G, A40V, A61V, A75E, A97V
VL: B1 VL with K53R, T72S, S76Y, S77D, S92R
B18: one-armed (OA) mAb11-1233 (antibody, V domains shown)
VH: B1 VH with K26G, T28K, A40V, A61V, A75E, A97V
VL: B1 VL with K53R, T72S
B19: one-armed (OA) mAb11-0965 (antibody, V domains shown)
VH: B1 VH
VL: B1 VL with D55E
B20: one-armed (OA) mAb11-1204 (antibody, V domains shown)
VH: B1 VH with K26G, A40V, K54R, A61V, D62K, A97V
VL: B1 VL with R18E, D55E, T72S
B21: one-armed (OA) mAb11-1030 (antibody, V domains shown)
VH: B1 VH with A40V, A61V
VL: B1 VL
B22: one-armed (OA) mAb01-9697 (antibody, V domains shown)
VH: B1 VH with R19K, K26G, H30D, A40V, K54R, A61V, M83L, A97V
VL: B1 VL with K53R, D55E, T72S
B23: one-armed (OA) mAb11-1076 (antibody, V domains shown)
VH: B1 VH with K26G, A40V, A61V
VL: B1 VL with D55E
B24: one-armed (OA) mAb11-1279 (antibody, V domains shown)
VH: B1 VH with K26G, A40V, A61V, A75E, A97V
VL: B1 VL with K53R, T72S, S92K
B25: one-armed (OA) mAb01-9373 (antibody, V domains shown)
VH: B1 VH with R19K, K26G, A40V, K54R, G58I, A61V, M83L, A97V
VL: B1 VL with V15A, R18E, Q27K, K45R, K53R, S77H
B26: one-armed (OA) mAb11-1042 (antibody, V domains shown)
VH: B1 VH with R19K, A61V
VL: B1 VL with D55E
B27: one-armed (OA) mAb11-1499 (antibody, V domains shown)
VH: B1 VH with K26G, A40V, K54R, A61V, D62K, A97V
VL: B1 VL
B28: one-armed (OA) mAb11-1278 (antibody, V domains shown)
VH: B1 VH with K26G, A40V, A61V, A75E, A97V
VL: B1 VL with K53R, T72S, S92Q
B29: one-armed (OA) mAb11-1275 (antibody, V domains shown)
VH: B1 VH with K26G, A40V, A61V, A75E, A97V
VL: B1 VL with K53R, T72S, Q79T
B30: one-armed (OA) mAb11-1073 (antibody, V domains shown)
VH: B1 VH with K26G, A40V, A61V
VL: B1 VL
B31: one-armed (OA) mAb11-1501 (antibody, V domains shown)
VH: B1 VH with K26G, H30D, A40V, K54R, A61V, D62K, A97V
VL: B1 VL
B32: one-armed (OA) mAb11-1273 (antibody, V domains shown)
VH: B1 VH with K26G, A40V, A61V, A75E, A97V
VL: B1 VL with K53R, T72S, S77E
B33: one-armed (OA) mAb11-1358 (antibody, V domains shown)
VH: B1 VH with R19K, K26G, H30D, A40V, K54R, A61V, M83L, A97V
VL: B1 VL with V15A, T72S
B34: one-armed (OA) mAb11-1344 (antibody, V domains shown)
VH: B1 VH with R19K, K26G, H30D, A40V, A61V, M83L
VL: B1 VL with V15A, T72S
B35: one-armed (OA) mAb11-1502 (antibody, V domains shown)
VH: B1 VH with K26G, H30D, A40V, K54R, A61V, D62K, A97V
VL: B1 VL with F46L
B36: one-armed (OA) mAb11-1259 (antibody, V domains shown)
VH: B1 VH with K26G, A40V, A61V, A75E, A97V
VL: B1 VL with S28K, K53R, T72S
B37: one-armed (OA) mAb11-1389 (antibody, V domains shown)
VH: B1 VH with R19K, K26G, A61V
VL: B1 VL with V15A, K53R, T72S
B38: one-armed (OA) mAb11-1268 (antibody, V domains shown)
VH: B1 VH with K26G, A40V, A61V, A75E, A97V
VL: B1 VL with K53R, S60K, T72S
B39: one-armed (OA) mAb11-1260 (antibody, V domains shown)
VH: B1 VH with K26G, A40V, A61V, A75E, A97V
VL: B1 VL with S28Q, K53R, T72S
B40: one-armed (OA) mAb11-1282 (antibody, V domains shown)
VH: B1 VH with K26G, A40V, A61V, A75E, A97V
VL: B1 VL with K53R, T72S, Y94W
B41: one-armed (OA) mAb11-1262 (antibody, V domains shown)
VH: B1 VH with K26G, A40V, A61V, A75E, A97V
VL: B1 VL with S30Q, K53R, T72S

Target: human plasma-derived Factor IXa (human, UniProt P00740 47-191; P00740 227-461)
Sequence (P00740 47-191, chain 1 of 2): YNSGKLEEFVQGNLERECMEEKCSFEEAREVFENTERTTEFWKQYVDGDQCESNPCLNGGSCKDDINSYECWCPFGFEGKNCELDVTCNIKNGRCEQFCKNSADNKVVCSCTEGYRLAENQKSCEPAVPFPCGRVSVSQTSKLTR
Sequence (P00740 227-461, chain 2 of 2): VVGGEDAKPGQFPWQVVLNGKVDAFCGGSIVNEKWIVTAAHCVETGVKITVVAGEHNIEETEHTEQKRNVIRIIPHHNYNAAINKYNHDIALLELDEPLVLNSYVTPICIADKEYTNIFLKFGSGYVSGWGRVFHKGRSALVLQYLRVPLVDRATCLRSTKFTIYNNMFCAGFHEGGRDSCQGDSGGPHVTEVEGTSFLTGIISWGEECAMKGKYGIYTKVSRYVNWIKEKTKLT
Assay: cell-based or functional assay

Row | Binder | Stimulation Index, FXa generation assay, 800 nM OA antibody [fold] | further results
1 | B1 | 3370 | 
2 | B2 |  | Stimulation Index, FXa generation assay, 3600 nM OA antibody: 3670 fold
3 | B3 | 2530 | 
4 | B4 | 1700 | 
5 | B5 | 5400 | 
6 | B6 | 1740 | 
7 | B7 | 1110 | 
8 | B8 |  | Stimulation Index, FXa generation assay, 1600 nM OA antibody: 7690 fold
9 | B9 | 3650 | 
10 | B10 |  | Stimulation Index, FXa generation assay, 1600 nM OA antibody: 5170 fold
11 | B11 | 4080 | 
12 | B12 |  | Stimulation Index, FXa generation assay, 3600 nM OA antibody: 6440 fold
13 | B13 | 3960 | 
14 | B14 | 4650 | 
15 | B15 |  | Stimulation Index, FXa generation assay, 760 nM OA antibody: 1890 fold
16 | B16 | 5130 | 
17 | B17 | 1820 | 
18 | B18 | 1700 | 
19 | B19 | 2860 | 
20 | B20 |  | Stimulation Index, FXa generation assay, 1600 nM OA antibody: 9100 fold
21 | B21 | 5750 | 

Row | Binder | Stimulation Index, FXa generation assay, 800 nM OA antibody [fold] | further results
22 | B22 |  | Stimulation Index, FXa generation assay, 3200 nM OA antibody: 6540 fold
23 | B23 | 3590 | 
24 | B24 | 1560 | 
25 | B25 |  | Stimulation Index, FXa generation assay, 1600 nM OA antibody: 1390 fold
26 | B26 | 4320 | 
27 | B27 |  | Stimulation Index, FXa generation assay, 1600 nM OA antibody: 9010 fold
28 | B28 | 1690 | 
29 | B29 | 1840 | 
30 | B30 | 6150 | 
31 | B31 |  | Stimulation Index, FXa generation assay, 1600 nM OA antibody: 10300 fold
32 | B32 | 1540 | 
33 | B33 | 2830 | 
34 | B34 | 4660 | 
35 | B35 |  | Stimulation Index, FXa generation assay, 1600 nM OA antibody: 5850 fold
36 | B36 | 2000 | 
37 | B37 | 5790 | 
38 | B38 | 1800 | 
39 | B39 | 1760 | 
40 | B40 | 1460 | 
41 | B41 | 1950 | 
